Experimental findings from publication doi:10.1101/815886 are described below.

Common to all, as to conditions: remark: other sources report otherwise
Experiment [1] addresses T1, human CTC1-STN1-TEN1 (CST) heterotrimeric complex (human), Q2NKJ3.
T1 chain 1: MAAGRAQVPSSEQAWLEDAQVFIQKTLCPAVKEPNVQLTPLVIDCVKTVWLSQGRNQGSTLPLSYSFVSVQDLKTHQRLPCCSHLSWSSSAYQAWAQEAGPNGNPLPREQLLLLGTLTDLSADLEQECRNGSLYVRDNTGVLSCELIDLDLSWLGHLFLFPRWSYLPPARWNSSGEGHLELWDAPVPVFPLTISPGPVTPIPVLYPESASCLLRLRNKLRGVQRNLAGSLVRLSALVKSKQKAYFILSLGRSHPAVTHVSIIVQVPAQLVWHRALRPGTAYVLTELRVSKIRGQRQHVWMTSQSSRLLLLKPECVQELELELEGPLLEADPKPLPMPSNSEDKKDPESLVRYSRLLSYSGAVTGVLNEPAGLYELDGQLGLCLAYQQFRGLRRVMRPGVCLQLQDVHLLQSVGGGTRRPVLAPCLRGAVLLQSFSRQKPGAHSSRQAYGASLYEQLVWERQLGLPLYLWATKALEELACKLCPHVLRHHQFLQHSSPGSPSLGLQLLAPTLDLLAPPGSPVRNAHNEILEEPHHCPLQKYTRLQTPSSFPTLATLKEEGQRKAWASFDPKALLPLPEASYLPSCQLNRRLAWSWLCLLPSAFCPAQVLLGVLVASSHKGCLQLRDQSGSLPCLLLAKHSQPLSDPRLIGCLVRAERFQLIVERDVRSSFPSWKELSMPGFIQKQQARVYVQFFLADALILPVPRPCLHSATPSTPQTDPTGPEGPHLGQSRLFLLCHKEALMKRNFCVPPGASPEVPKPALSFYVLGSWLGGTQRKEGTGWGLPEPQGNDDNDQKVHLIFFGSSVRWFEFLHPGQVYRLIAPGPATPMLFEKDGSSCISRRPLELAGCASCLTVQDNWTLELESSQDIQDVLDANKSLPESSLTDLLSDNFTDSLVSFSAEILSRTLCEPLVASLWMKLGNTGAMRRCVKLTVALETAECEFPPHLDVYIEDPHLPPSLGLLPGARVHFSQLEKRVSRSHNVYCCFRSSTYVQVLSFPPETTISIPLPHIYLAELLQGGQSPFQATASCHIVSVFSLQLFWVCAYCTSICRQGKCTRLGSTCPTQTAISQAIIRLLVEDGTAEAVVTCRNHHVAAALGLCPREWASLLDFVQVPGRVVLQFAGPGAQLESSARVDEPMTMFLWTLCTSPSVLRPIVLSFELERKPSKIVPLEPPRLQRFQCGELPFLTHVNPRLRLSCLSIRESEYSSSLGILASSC
T1 chain 2: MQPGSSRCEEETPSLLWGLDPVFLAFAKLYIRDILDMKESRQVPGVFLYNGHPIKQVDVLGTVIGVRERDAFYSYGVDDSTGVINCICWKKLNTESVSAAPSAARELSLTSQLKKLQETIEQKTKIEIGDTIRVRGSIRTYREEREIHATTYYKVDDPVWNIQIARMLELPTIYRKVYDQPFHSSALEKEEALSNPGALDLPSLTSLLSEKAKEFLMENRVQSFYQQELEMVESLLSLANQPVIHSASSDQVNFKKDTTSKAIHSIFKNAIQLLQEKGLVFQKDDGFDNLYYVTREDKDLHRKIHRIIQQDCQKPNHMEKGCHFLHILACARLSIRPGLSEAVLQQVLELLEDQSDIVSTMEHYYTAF
T1 chain 3: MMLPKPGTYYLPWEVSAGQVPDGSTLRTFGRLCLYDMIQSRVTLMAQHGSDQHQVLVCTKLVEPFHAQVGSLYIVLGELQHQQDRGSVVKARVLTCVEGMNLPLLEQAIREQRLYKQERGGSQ

The target of experiment [2] is T1, human CTC1-STN1-TEN1 (CST) …. Nature of the experiment: cryo-EM structure.
The target is the same in experiment [3]. As to the kind of experiment: negative-stain EM single-particle analysis.
The target is the same in experiment [4]. As to the kind of experiment: negative-stain EM single-particle analysis.

Where “and” joins values, the source holds several entries; their conditions need not be identical. Equal entries are not always repeated. Where two headings read alike, the source gives them in different places.

B1: human CTC1-STN1-TEN1 (CST) heterotrimeric complex, Q2NKJ3;Q9H668;Q86WV5 (complex)
chain 1: MAAGRAQVPSSEQAWLEDAQVFIQKTLCPAVKEPNVQLTPLVIDCVKTVWLSQGRNQGSTLPLSYSFVSVQDLKTHQRLPCCSHLSWSSSAYQAWAQEAGPNGNPLPREQLLLLGTLTDLSADLEQECRNGSLYVRDNTGVLSCELIDLDLSWLGHLFLFPRWSYLPPARWNSSGEGHLELWDAPVPVFPLTISPGPVTPIPVLYPESASCLLRLRNKLRGVQRNLAGSLVRLSALVKSKQKAYFILSLGRSHPAVTHVSIIVQVPAQLVWHRALRPGTAYVLTELRVSKIRGQRQHVWMTSQSSRLLLLKPECVQELELELEGPLLEADPKPLPMPSNSEDKKDPESLVRYSRLLSYSGAVTGVLNEPAGLYELDGQLGLCLAYQQFRGLRRVMRPGVCLQLQDVHLLQSVGGGTRRPVLAPCLRGAVLLQSFSRQKPGAHSSRQAYGASLYEQLVWERQLGLPLYLWATKALEELACKLCPHVLRHHQFLQHSSPGSPSLGLQLLAPTLDLLAPPGSPVRNAHNEILEEPHHCPLQKYTRLQTPSSFPTLATLKEEGQRKAWASFDPKALLPLPEASYLPSCQLNRRLAWSWLCLLPSAFCPAQVLLGVLVASSHKGCLQLRDQSGSLPCLLLAKHSQPLSDPRLIGCLVRAERFQLIVERDVRSSFPSWKELSMPGFIQKQQARVYVQFFLADALILPVPRPCLHSATPSTPQTDPTGPEGPHLGQSRLFLLCHKEALMKRNFCVPPGASPEVPKPALSFYVLGSWLGGTQRKEGTGWGLPEPQGNDDNDQKVHLIFFGSSVRWFEFLHPGQVYRLIAPGPATPMLFEKDGSSCISRRPLELAGCASCLTVQDNWTLELESSQDIQDVLDANKSLPESSLTDLLSDNFTDSLVSFSAEILSRTLCEPLVASLWMKLGNTGAMRRCVKLTVALETAECEFPPHLDVYIEDPHLPPSLGLLPGARVHFSQLEKRVSRSHNVYCCFRSSTYVQVLSFPPETTISIPLPHIYLAELLQGGQSPFQATASCHIVSVFSLQLFWVCAYCTSICRQGKCTRLGSTCPTQTAISQAIIRLLVEDGTAEAVVTCRNHHVAAALGLCPREWASLLDFVQVPGRVVLQFAGPGAQLESSARVDEPMTMFLWTLCTSPSVLRPIVLSFELERKPSKIVPLEPPRLQRFQCGELPFLTHVNPRLRLSCLSIRESEYSSSLGILASSC
chain 2: MQPGSSRCEEETPSLLWGLDPVFLAFAKLYIRDILDMKESRQVPGVFLYNGHPIKQVDVLGTVIGVRERDAFYSYGVDDSTGVINCICWKKLNTESVSAAPSAARELSLTSQLKKLQETIEQKTKIEIGDTIRVRGSIRTYREEREIHATTYYKVDDPVWNIQIARMLELPTIYRKVYDQPFHSSALEKEEALSNPGALDLPSLTSLLSEKAKEFLMENRVQSFYQQELEMVESLLSLANQPVIHSASSDQVNFKKDTTSKAIHSIFKNAIQLLQEKGLVFQKDDGFDNLYYVTREDKDLHRKIHRIIQQDCQKPNHMEKGCHFLHILACARLSIRPGLSEAVLQQVLELLEDQSDIVSTMEHYYTAF
chain 3: MMLPKPGTYYLPWEVSAGQVPDGSTLRTFGRLCLYDMIQSRVTLMAQHGSDQHQVLVCTKLVEPFHAQVGSLYIVLGELQHQQDRGSVVKARVLTCVEGMNLPLLEQAIREQRLYKQERGGSQ
Consider B1, for which the stoichiometry N (usually the number of molecules, sites or subunits per partner or assembly) in experiment [1] is 10; in experiment [2] it was 10; in experiment [3], 4 and 2; in experiment [4], 10.
